Data on three molecules can be found in paper PMC3597700.

Data set [1] deals with RHA dsRBD1 N30A (Homo sapiens, UniProt Q08211 1-91, N30A). Briefly: ITC.
For data set [2], the target named is T1, RHA dsRBD2 (Homo sapiens, UniProt Q08211 165-264). Briefly: ITC. A general note: Isothermal titration calorimetry measures the heat released or taken up as one component is titrated into another.
Data set [3] addresses RHA dsRBD2 K182A (Homo sapiens, UniProt Q08211 165-264, K182A). Briefly: ITC.
Data set [4] concerns the target RHA dsRBD2 H207A (Homo sapiens, UniProt Q08211 165-264, H207A). The data set is described as follows: ITC.
The target in data set [5] is T2, RHA dsRBD1 (Homo sapiens, UniProt Q08211 1-91). The data set is described as follows: ITC.
T2 sequence (Q08211 1-91): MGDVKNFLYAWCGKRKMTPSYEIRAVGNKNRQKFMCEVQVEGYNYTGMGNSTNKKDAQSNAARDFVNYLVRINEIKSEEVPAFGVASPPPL
The target of data set [6] is RHA dsRBD1 Y9A (Homo sapiens, UniProt Q08211 1-91, Y9A). Briefly: ITC.
Sequence of RHA dsRBD1 Y9A (Q08211 1-91 Y9A): as the sequence (Q08211 1-91) above, with Y9A counted along it
Data set [7] concerns the target RHA dsRBD2 N234A/K235A/K236A (Homo sapiens, UniProt Q08211 165-264, N234A;K235A;K236A). The data set is described as follows: ITC.
Data set [8] addresses RHA dsRBD1 N53A/K54A/K55A (Homo sapiens, UniProt Q08211 1-91, N53A;K54A;K55A). Briefly: ITC.
Data set [9] deals with RHA dsRBD1+2 (Homo sapiens, UniProt Q08211 1-264). The data set is described as follows: ITC.
Sequence of RHA dsRBD1+2 (Q08211 1-264): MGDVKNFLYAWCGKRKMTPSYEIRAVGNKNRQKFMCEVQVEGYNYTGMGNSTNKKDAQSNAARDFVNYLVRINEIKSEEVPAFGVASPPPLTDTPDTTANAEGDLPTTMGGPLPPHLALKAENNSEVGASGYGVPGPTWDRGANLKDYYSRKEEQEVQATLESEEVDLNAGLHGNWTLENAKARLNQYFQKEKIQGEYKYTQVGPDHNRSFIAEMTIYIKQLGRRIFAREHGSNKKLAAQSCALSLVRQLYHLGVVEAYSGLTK
The target in data set [10] is GST-RHA dsRBD1+2 (Homo sapiens, UniProt Q08211 1-264). The data set is described as follows: pull-down.
Sequence of GST-RHA dsRBD1+2 (Q08211 1-264): as above
Data set [11] has as its target GST-RHA dsRBD1 (Homo sapiens, UniProt Q08211 1-91). Briefly: pull-down.
In data set [12] the target is GST-RHA dsRBD2 (Homo sapiens, UniProt Q08211 165-264). Briefly: pull-down.
Sequence of GST-RHA dsRBD2 (Q08211 165-264): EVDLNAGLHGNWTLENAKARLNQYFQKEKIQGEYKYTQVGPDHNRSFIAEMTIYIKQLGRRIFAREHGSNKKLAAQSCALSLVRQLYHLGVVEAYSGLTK
For data set [13], the target named is T1, RHA dsRBD2. The data set is described as follows: crystal structure.
Data set [14] deals with T2, RHA dsRBD1. The data set is described as follows: crystal structure.

T1 sequence (Q08211 165-264): as above
Sequence of RHA dsRBD2 K182A (Q08211 165-264 K182A): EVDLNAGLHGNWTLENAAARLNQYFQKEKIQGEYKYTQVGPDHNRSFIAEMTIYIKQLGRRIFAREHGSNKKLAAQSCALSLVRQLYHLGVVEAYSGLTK
Sequence of RHA dsRBD1 N30A (Q08211 1-91 N30A): as the sequence (Q08211 1-91) above, with N30A counted along it
Sequence of RHA dsRBD2 N234A/K235A/K236A (Q08211 165-264 N234A/K235A/K236A): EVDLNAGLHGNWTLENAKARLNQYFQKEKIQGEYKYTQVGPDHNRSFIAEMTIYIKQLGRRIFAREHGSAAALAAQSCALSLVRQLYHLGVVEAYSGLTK
Sequence of RHA dsRBD1 N53A/K54A/K55A (Q08211 1-91 N53A/K54A/K55A): as the sequence (Q08211 1-91) above, with N53A, K54A, K55A counted along it
Sequence of GST-RHA dsRBD1 (Q08211 1-91): as the sequence (Q08211 1-91) above
Sequence of RHA dsRBD2 H207A (Q08211 165-264 H207A): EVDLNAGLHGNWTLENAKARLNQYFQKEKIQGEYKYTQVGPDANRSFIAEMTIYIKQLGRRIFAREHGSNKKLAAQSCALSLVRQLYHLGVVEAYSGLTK

B1: siRNA21 duplex (dsRNA)
RNA 1: AGACAGCAUUAUGCUGUCUUU
RNA 2: AGACAGCAUUAUGCUGUCUUU
modifications: 5' phosphate
For the molecule B1, the Kd – broadly, the free concentration of one partner at which half of the binding sites on the other are occupied at equilibrium, for simple one-to-one binding – in data set [1] worked out at 14.5 µM; in data set [2], 13.6 µM; in [3] it was 334 µM; in [4], 291 µM; in [5] it was 5.93 µM; in [9] it was 0.106 µM. Also, the binding result in [6], in data set [7] and in data set [8] was “no binding” throughout.

B2: 5'-biotinylated siRNA21 duplex (dsRNA)
RNA 1: AGACAGCAUUAUGCUGUCUUU
RNA 2: AGACAGCAUUAUGCUGUCUUU
For B2, the binding result in data set [10], in [11] and in [12] was “binds” each time.

B3: GC10 duplex (dsRNA)
RNA 1: GCGCGCGCGC
RNA 2: GCGCGCGCGC
For the molecule B3, the binding result in data set [13] and in data set [14] was “binds” throughout.
